This is an account of results in a protein production outcome set (Wang et al. 2014).

The nature of this data set: label from the status in PepcDB records.
On to “MSTVPISGRSQIMLVQDSEILSSSALQYKQFLSKVKISKNATSTAQVRRVGQKVAAATMLYLKQNGLGDMASQMKWEFNVVEDKAVNAFCMPGGKIVVYTGLLKLVGSDAELATVISHEVSHAVARHSNERISQEYLRQMGGNILGAAVSNKSAALQTVIGQAYGIGSQVLITLPYNRKQEYEADKIGLVFMAMAGYNPNAAITFWQKMAAQGNGRVEFLSTHPSDANRIAAIRQYMPEAMKHYKSKLEHHHHHH”, for which the protein production entry is recorded as “not failed”.
For the sequence “MSVDPACPQSLPCFEASDCKESSPMPVICGPEENYPSLQMSSAEMPHTETVSPLPSSMDLLIQDSPDSSTSPKGKQPTSAENSVAKKEDKVPVKKQKTRTVFSSTQLCVLNDRFQRQKYLSLQQMQELSNILNLSYKQVKTWFQNQRMKSKRWQKNNWPKNSNGVTQKASAPTYPSLYSSYHQGCLVNPTGNLPMWSNQTWNNSTWSNQTQNIQSWSNHSWNTQTWCTQSWNNQAWNSPFYNCGEESLQSCMHFQPNSPASDLEAALEAAGEGLNVIQQTTRYFSTPQTMDLFLNYSMNMQPEDV”, the protein production entry is “not failed”.
As to “MSVDQMAHYQRKLAYEMDSWDLYIALNEGQAITIVDGRSEAAFADEHIPGALNLPHKEICFNSTQMLDKSKLYVCYCDGIGCNASTKTALNLLTLGFDVRELIGGLDWWKRDGYATDGKKAQLGTKINCGC”, the protein production result was “failed”.
The result for “MSVDTTVKNRVYPAIPPTQLPEFETIFGHPKPLWMLFMAEFWERFAFYGIRWALTLYIVTQFFDGNAIGEGNANSTYGAYLALVYASAIFGGFIADRIIGYQRSIIIGAVIMACGLFLITVPSRTMFEIGLATIVIGNGLFKPNISSLVGQLYAEGDTRRDRGFTIFYMGINAGSLISPLITSWLAGQVFGTPMQQNYKVVFIASGIGMFLSLLWFWIGKRQLKGIGLSPKGGESIFRTFLIVFGALLAIPLAYLLLAKLNATTLAWILGLLFAVLATLLIVTALRNGKIQRDRVIAMLIIFVFNVMFWMFFEQAGSSFNFLAKNIVDRQILSNWEFPVGWFQSVNPLAIILLAPIIAVIWSLLDKYRIEPSIPRKFSFGLMFNGFGFLILMYALSNLLNASNMIPFWSLIAVYVIQTVGELCLSPIGLSMVTKLAPVRLVGFAMGGWFLSTAIGNNLSGVFASFVSGEEGMTVSSALRGYTFGFWSLIGSGILLFLISPLINRLMHGVK” reads “failed”; that for “MSVFAGLVEQLADVLQPLFHASAAAAAIVLFTALVRLLVHPLSRASARGQRARARLQPQVAELRKKHGKNPEKLQKALLELHAEEKVSPLSGCLPGLFQLPAFFLLYHLFSNTTIGGEGNELLTHTLFTAPLGDRWADALGDGGPFGTQGLVYLGLFAIVAAVATFNYRRTKRTMAANPLPVGDGEQQVPGLGAINRFMPLMSFFTLFTVAFVPLAAALYVVTSTTWSAVERAALYPVPERSS”, “failed”.
The result for “MSVKGFFFILVFFLVAIMGFLIYISETVVVKYLYIAEALMLLLMLYLILFYRKIVKPMNTIGSGMELLREQDFSSRLSHVGQQEADRVVNVFNRMMEQLKNERLRLREQNHFLDLMINASPMGVIIMTLDEEVSQLNPMAMKMMGVRPEEAEGRKLSEIDSPLALELAAIPNGETSTVRLNDSSIYKCTHSSFVDRGFQHPFYLMEGLTDEVMKAEKKAYEKVIRMIAHEVNNTTAGITSTLDTVEQALSESEGMEDICDVMRVCTERCFSMSHFITRFADVVKIPEPRFTPTNLNDLAFTCKRFMEGMCNDRNIRLQLICDESLDDVKLDASLFEQVLVNIIKNAAESIGQDGQIIIRTSLPTAIEVVDNGPGISKETEAKLFSPFFSTKPNGQGIGLIFIREVLSRHGCTFSLRTYADGLTRFRILFP” reads “failed”; that for “MSVKTWRKIAIDIIRDFDHNIMPLFGNPKASETISISPSGDETKVVDKVAENIIISKFKDLGVNVVSEEIGRIDQGSDYTVVVDPLDGSYNFINGIPFFAVSVAIFHEKDPIYAFIYEPIVERLYEGIPGKGSYLNGEKIKVRELAEKPSISFYTKGKGTKIIDKVKRTRTLGAIALELAYLARGALDAVVDIRNYLRPTDIAAGVVIAREAGAIVKDLDGKDVEITFSATEKVNIIAANNEELLETILRSIEK”, “not failed”; that for “MSVPAIAPRRKRLADGLSVTQKVFVRSRNGGATKIVREHYLRSDIPCLSRSCTKCPQIVVPDAQNELPKFILSDSPLELSAPIGKHYVVLDTNVVLQAIDLLENPNCFFDVIVPQIVLDEVRNKSYPVYTRLRTLCRDSDDHKRFIVFHNEFSEHTFVERLPNETINDRNDRAIRKTCQWYSEHLKPYDINVVLVTNDRLNREAATKEVESNIITKSLVQYIELLPNADDIRDSIPQMDSFDKDLERDTFSDFTFPEYYSTARVMGGLKNGVLYQGNIQISEYNFLEGSVSLPRFSKPVLIVGQKNLNRAFNGDQVIVELLPQSEWKAPSSIVLDSEHFDVNDNPDIEAGDDDDNNESSSNTTVISDKQRRLLAKDAMIAQRSKKIQPTAKVVYIQRRSWRQYVGQLAPSSVDPQSSSTQNVFVILMDKCLPKVRIRTRRAAELLDKRIVISIDSWPTTHKYPLGHFVRDLGTIESAQAETEALLLEHDVEYRPFSKKVLECLPAEGHDWKAPTKLDDPEAVSKDPLLTKRKDLRDKLICSIDPPGCVDIDDALHAKKLPNGNWEVGVHIADVTHFVKPGTALDAEGAARGTSVYLVDKRIDMLPMLLGTDLCSLKPYVDRFAFSVIWELDDSANIVNVNFMKSVIRSREAFSYEQAQLRIDDKTQNDELTMGMRALLKLSVKLKQKRLEAGALNLASPEVKVHMDSETSDPNEVEIKKLLATNSLVEEFMLLANISVARKIYDAFPQTAMLRRHAAPPSTNFEILNEMLNTRKNMSISLESSKALADSLDRCVDPEDPYFNTLVRIMSTRCMMAAQYFYSGAYSYPDFRHYGLAVDIYTHFTSPIRRYCDVVAHRQLAGAIGYEPLSLTHRDKNKMDMICRNINRKHRNAQFAGRASIEYYVGQVMRNNESTETGYVIKVFNNGIVVLVPKFGVEGLIRLDNLTEDPNSAAFDEVEYKLTFVPTNSDKPRDVYVFDKVEVQVRSVMDPITSKRKAELLLK”, “failed”.
The result for “MSVPGPSSPDGALTRPPYCLEAGEPTPGLSDTSPDEGLIEDLTIEDKAVEQLAEGLLSHYLPDLQRSKQALQELTQNQVVLLDTLEQEISKFKECHSMLDINALFAEAKHYHAKLVNIRKEMLMLHEKTSKLKKRALKLQQKRQKEELEREQQREKEFEREKQLTARPAKRM” reads “failed”; that for “MSVPQRPHQFVLTLSCPSAAGQVAAVVGLLDRHRCYVDELTVFDDDLSARFFVRCVFHATDDADALRVDALRREFEPIAERFRMQWAIHDVAARPKVLIMVSKLEHCLADLLFRWKMGELKMDIVGIVSNHPDFAPLAAQHGLPFRHFPITADTKAQQEAQWLDVFETSGAELVILARYMQVLSPEASARLANRAINIHHSFLPGFKGAKPYHQAHARGVKLIGATAHFVTDDLDEGPIIEQVVERVDHSYRPEQLLAVGRDVECITLARAVKAFIERRVFLNGDRTVVFQ”, “not failed”.
As for “MSVRDLIPWSRGGGPAPSIYRGDDMDPFLSLHRNVNRLFDEVFRGFDTPSVLGRMAPLNGTWPGVEFSETDEEIRLTAEIPGLDENDVEVMLDDGVLTLRGEKKAETEDKDRQFSERYYGRFERRFGLGREVEDDKVAATFKNGVLTVTLPKTKRAQANAKRIAINGNK”, the protein production entry is listed as “failed”.
The result for “MSVRVYIGNLPRDIEQAELDAVFAEAGEVSAKLVTDRKTGKSRGFAFATVASDELADALIERFNGTEVQGSTLKLEKAQPRERDNEGGNNRRRSGGGGNDNRRSGKSAPRVISSGPEGFQPDPRWAQELEKLKELLAAQTVS” reads “failed”; that for “MSVSIILMGLFVGALVGLTGVGGAALLTPLLIVLGINPSIAVGTDLVYNSITKLFGVASHWRQKTINFKLVKYLAIGSIPSASLAIGILHLFPAFHQHQEEIIKHALGYVLTLVAISIIVRLFLDRKLRPNRWQLMPLENKRALTILIGVVFGFIVGLTSIGSGSLFAIAMIYLFNMKASQIVGTDIAHAFLLVTAAGILNASFGSVDYMLAANLLLGSIPGVLIGSHLSPRFSPRPLQFIMASIILVSGLKLI”, “failed”; that for “MSVSVRSYLSPTLVLLAFDWPDAQRRDDFLGFAIKRTPGFWSADGKTRAATSWLPNRLTFDGPAAHTQGDAPTDQAPIQKFMWWDARIDPPDRGRAFRYDVYPVVGTPASLRVLEADAGGCTVTLPAHVEGGVGTWFNRAVVSSQAFAKQVRALRLADGAAPSPDAARRLRTWLANDLEETFGLMLGADARRAVSAVYHLTDPLWAIPAFDAFGRAHGADALAIVYDAHETKRGSGEPPLPSPNQAAVEQLTGVATLAPRDKTRIMHDKFIVAGDEAGPARVLTGSANFTTEGITEQANVLHTFESAALAGLYNACARALASNPCVAETARLAPGWSEPVEVGTARVRVSFSPEPRGARTQIDTIVDAIRGARHSVVFCLFMPTDAALRDACFAAGDRGLMMFGLVNAISARGAQQADADRRDGKTLDAARLANLELYHRSRSNRDVIDAAYFSPATVPAGFEAELRLFPGEAPPPYPPVVVHHKFIVIDAEGANPIVYSGSANMSANSEHYNDENLLEIRDARVAGIYLAEFLRLYEHYRARALAIASRRGNGSGAGGAAGPHGGLALQPDSRWAKKYFVDASPEEKARIALAAPVAAR”, “failed”.
Regarding “MSWLIHAGEGRQYQVAPPVSWSQSYAEARMTDIQRLDDQTVERIAAGEVVERPASVVKELVENAIDADASRVDVVVEAGGTDGIRVTDDGIGMDREAVKTAVEEHTTSKIRDIADLEGGVGTLGFRGEALHAIGAVSRLTIRTRPRGGDVGTELVLEGGDVTSVSPAGCPEGTTMAVEDLFYNVPARRKYLKQESTEFAHVNTVVASYALANPDVAVSLTHGDRETFSTTGQGDLRETVMSVYGREVAESMISVGAGSEATGSGDEMDSFPDGPLDGVHGLVSHPETNRAGREYLSTYVNGRYVRAGTVRDAVIDAYGTQIAPDRYPFAVLFLDVPAGDVDVNVHPRKMEVRFADDEGVREQVRTAVEDALLREGLLRSTAPRGRSAPEQTEITPESDGATDSGGERAAPNGRDAIDDATTSGQTDTTATENSAEAPAQEPDTAPTARPDGTQTETGNCESSDTAPSIQSADTKPSSETGRTDGTSGESGTGQTGGSVSGGDSDSERPGASATGQTAAERGERKFTGGQEQARLGDDPEATHESLPSMRILGQLADTYVVAETDDGLVLVDQHAADERVNYERLKAKFEGETTTQALANPVELGLTAREAEVFDRRSDALASLGFHTARTGERSVEVRTLPGVIADAAGPDIVRDVLGAFVAGDDEAAATVEAAADELLGDLACYPSVTGNTSLTEGSVRELLAALDDCENPYACPHGRPTVIHIDRQELEDRFERDYPGHGGRRR”, the protein production result is reported as “failed”.
Consider “MSYAKEMLDAIEAGQMETAKQLFTQVLAHDDDETQYNLAEELYALGFNGQAKRLYQGLLGRYPDQGDLATALADIAVSDGDTDAALNYLSRIQPGDPAYVQSLVSAADVYQTLGLYEVSEQKLLEAKRLAPDEPVVTFALGEFYFDWGHFAEAISAYNELLAAGTTELAGVNIEARLAASLAQTGQYEDAVAAYEDVGVDALDLNGRFELGGLYLQLDDPAKAITNLQAVIDSDPSYANAYLPLARAYEAQNQPDKALDTVQAGVMVDDTNPTLYALGGKLALSEDNVKLAETYLQKALAIDPEDQGNMLAWSNFLVQEERDQENVDFLDQIDRSGDVDPQIYWNMAKSYDRLENIKKARENYLLAFNRFQDSPDFLHDIIDFFQSTGARAELKAALVRYLKLVPTDDEMQARLDELNAETDLEHHHHHH”, for which the protein production entry is given as “not failed”.
The result for “MSYEAIMLERNGAVGVLTFNRPEVLNAYNRTLAADIITGFNELVADKSVRAIVLTGAGKAFMAGADINMVNGWTKLGNAAKIKEDLRQLVNPNMIEDCPKPTIAAVNGLAFGMGCELAMACDFRIAAEKAQFGQPEVKLGIIPGAGGSQRLRELVGPTRALEMISTGDPIDAQEAYRIGLVNQVVPRDELMEAVNAFAGRLIDKGAVVLDICKKLVYEGGDLPLRGGIDYEQDQFCKILLTADAQEGTLAFLEKRKPVFNKG” reads “failed”.
